Measurements: PMC10531356, “Hardening of Respiratory Syncytial Virus Inclusion Bodies by Cyclopamine Proceeds through Perturbation of the Interactions of the M2-1 Protein with RNA and the P Protein” (International Journal of Molecular Sciences, 2023)
Where no end group is shown, it is not given here. The star is where a group is joined. FITC = O=C1OC2(c3ccc(O)cc3Oc3cc(O)ccc32)c2ccc(NC(=S)*)cc21

Tests used:
[1] = target: M2-1-mCherry fusion protein (wild type) (human respiratory syncytial virus (hRSV), strain Long); experiment: SEC; Hi-Load 16/600 Superdex 200, 20 mM Tris-HCl pH 7.4, 150 mM NaCl, after GST cleavage
[2] = target: M2-1(R151K)-mCherry mutant (human respiratory syncytial virus (hRSV), strain Long); experiment: as above
[3] = target: T1, M2-1 core domain (wild type) (human respiratory syncytial virus …, UniProt P04545 58-177, 15N-labelled for NMR); experiment: MST; FITC-P95-112 fixed at 100 nM, M2-1core 0 to 33.5 µM, PBS with 1% DMSO and 0, 1 or 10 µM CPM, 20 °C, Monolith NT.115; conditions: both partners purified
T1 construct: C-terminal globular core domain of M2-1 of hRSV strain Long, from pGEX-M2-1core; UniProt entry of strain Long not known to me; also called 15N-M2-1core; WT M2-1core
T1 sequence: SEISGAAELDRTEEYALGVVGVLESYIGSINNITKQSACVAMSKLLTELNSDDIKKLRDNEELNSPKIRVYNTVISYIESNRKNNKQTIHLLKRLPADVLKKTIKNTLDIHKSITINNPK

Which stoichiometry N [1] does the source give for “M2-1-mCherry fusion protein (wild type) (natural protein)” here?
Its stoichiometry N is 4.

“M2-1(R151K)-mCherry mutant (natural protein)” was tested. Which stoichiometry N [2] did it give?
Its stoichiometry N is 4.

B1: FITC-P(95-112) peptide (peptide)
peptide: {FITC}-DNPFSKLYKETIETFDNN
notes: also called synthetic FITC-P peptide; P peptide; source: synthetic peptide, bought: Proteogenix
B1 was tested. Which Kd [3] did it give?
Its Kd is roughly 20 µM.
